Measured values reported in PMC11890623, “Pseudomonas aeruginosa acyl-CoA dehydrogenases and structure-guided inversion of their substrate specificity” (Nature Communications, 2025).

Experiments:
Experiment in all cases: Michaelis-Menten kinetics of purified enzyme (KM)
Format in all cases: biochemical, Pseudomonas aeruginosa
Details in all cases: FAD
[1] = substrate: CCCC(=O)SCCNC(=O)CCNC(=O)[C@H](O)C(C)(C)COP(=O)(O)OP(=O)(O)OC[C@H]1O[C@@H](n2cnc3c(N)ncnc32)[C@H](O)[C@@H]1OP(=O)(O)O
[2] = substrate: CCCCCC(=O)SCCNC(=O)CCNC(=O)[C@H](O)C(C)(C)COP(=O)(O)OP(=O)(O)OC[C@H]1O[C@@H](n2cnc3c(N)ncnc32)[C@H](O)[C@@H]1OP(=O)(O)O
[3] = substrate: CCCCCCCC(=O)SCCNC(=O)CCNC(=O)[C@H](O)C(C)(C)COP(=O)(O)OP(=O)(O)OC[C@H]1O[C@@H](n2cnc3c(N)ncnc32)[C@H](O)[C@@H]1OP(=O)(O)O

B1: FadE2 (Pseudomonas aeruginosa PAO1) (protein)
chain: MADYKAPLRDMRFVLNEVFEVSRLWAQLPALAEVVDAETAAAILEEAGKVTAGTIAPLNRPGDEEGCQWNAGAVSTPAGFPEAYRTYAEGGWVGVGGDPAYGGMGMPKVISAQVEELVNSANLSFGLYPMLTAGACLALNAHASDELKDKYLPNMYAGIWAGSMCLTEPHAGTDLGIIRTRAEPQADGSYKISGTKIFITGGEHDLTENIIHLVLAKLPDAPAGPKGISLFLVPKVLVNADGSLGEKNSLGCGSIEHKMGIKASATCVMNFDGATGWLVGEVNKGLAAMFTMMNYERLGVGIQGLATGERSYQSAIEYARERIQSRAPTGPVAKDKAADPIIVHPDVRRMLLTMKALNEGGRAFSSYVAMQLDTAKYSEDAVTRKRAEELVALLTPVAKAFLTDMGLETTIHGQQIFGGHGFIREWGQEQLVRDCRITQIYEGTNGIQALDLVGRKVIGSGGAFSRHFTDEIKAFVASADEALGEFSKPLAAAVENLEELTAWLLDRAKGNPNEIGAASVEYLHVFGYTAYAYMWALMARTALAKQGEDDFYASKLGTARFYFARLLPRIHSLSASVRAGSESLYLLDAEQF
notes: full-length ORF, His6 tag removed by TEV
- Km [1]: 10.35 ± 1.06 µM
- Km [2]: 14.6 ± 1.43 µM
- Km [3]: 21.59 ± 1.23 µM
